Results published in IntAct's records for PubMed 23542155.

B1: Ligand-dependent nuclear receptor-interacting factor 1 (Homo sapiens), Q5T3J3 (parent)
chain: MSNNLRRVFLKPAEENSGNASRCVSGCMYQVVQTIGSDGKNLLQLLPIPKSSGNLIPLVQSSVMSDALKGNTGKPVQVTFQTQISSSSTSASVQLPIFQPASSSNYFLTRTVDTSEKGRVTSVGTGNFSSSVSKVQSHGVKIDGLTMQTFAVPPSTQKDSSFIVVNTQSLPVTVKSPVLPSGHHLQIPAHAEVKSVPASSLPPSVQQKILATATTSTSGMVEASQMPTVIYVSPVNTVKNVVTKNFQNIYPKPVTEIAKPVILNTTQIPKNVATETQLKGGQHSQAAPVKWIFQDNLQPFTPSLVPVKSSNNVASKILKTFVDRKNLGDNTINMPPLSTIDPSGTRSKNMPIKDNALVMFNGKVYLLAKKGTDVLPSQIDQQNSVSPDTPVRKDTLQTVSSSPVTEISREVVNIVLAKSKSSQMETKSLSNTQLASMANLRAEKNKVEKPSPSTTNPHMNQSSNYLKQSKTLFTNPIFPVGFSTGHNAPRKVTAVIYARKGSVLQSIEKISSSVDATTVTSQQCVFRDQEPKIHNEMASTSDKGAQGRNDKKDSQGRSNKALHLKSDAEFKKIFGLTKDLRVCLTRIPDHLTSGEGFDSFSSLVKSGTYKETEFMVKEGERKQQNFDKKRKAKTNKKMDHIKKRKTENAYNAIINGEANVTGSQLLSSILPTSDVSQHNILTSHSKTRQEKRTEMEYYTHEKQEKGTLNSNAAYEQSHFFNKNYTEDIFPVTPPELEETIRDEKIRRLKQVLREKEAALEEMRKKMHQK

Variants of: B1
Settings: with cbx5_human CBX5, P45973
cbx5_human CBX5, P45973, sequence (P45973 whole entry): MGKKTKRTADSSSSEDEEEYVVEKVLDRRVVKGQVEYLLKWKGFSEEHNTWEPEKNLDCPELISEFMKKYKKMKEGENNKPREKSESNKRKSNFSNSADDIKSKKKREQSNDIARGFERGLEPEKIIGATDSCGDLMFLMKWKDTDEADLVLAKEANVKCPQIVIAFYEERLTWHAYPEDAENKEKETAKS

Row | effect of a mutation on the interaction | Variant
1 | disrupting interaction strength | V582D;L584E
